Where only a bound is given, the exact number is not on record here.

Experiment [1] concerns the target T1, Human amylin (1-37) (human).
T1 chain: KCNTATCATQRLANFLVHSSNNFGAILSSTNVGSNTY
The experiment is described as follows: cross-linking. The settings on record: remark: other sources report otherwise.

The target is the same in experiment [2]. The experiment is described as follows: cross-linking. The settings on record: remark: other sources report otherwise.

As for KCNTATCATQRLANFLVHSSNNFGAILSSTNVGSNTY [Human amylin (1-37)], the stoichiometry N (as a rule, a count of units in the complex or per binding partner) in experiment [1] was under 6; in experiment [2], 6.

Values taken from PMC4373355.
